Measurements reported in the DeepSol protein solubility set.

experiment: soluble on expression in E. coli; label from the status in PepcDB or PDB records

Soluble on expression in E. coli, soluble:
MGSDKIHHHHHHENLYFQGMLIEIPNVFSKQEVSHLREQLDARRWIDGNQTSGAMATTRKRNQQLDKDDPVAVALGQQIMDRLLAHPQFVSAALPLQFYPPLFNRYQGGETFGYHIDNAIRSTPDGMIRTDLSATLFLSEPENYQGGELVIQDTYGQQSIKLSAGSLVLYPSSSLHQVTPVLSGERTAAFMWLQSMVRDEGQRRLLFQLDQSIQSLTAQTAAEQELFNLSGVYHNLLRRWSEL

Soluble on expression in E. coli, not soluble:
MGSDKIHHHHHHERHEFIIEVVGNAYLDDVMDWYQPSYGDYLVQAHPVIVLYYPDESYAYYERATFYEQYNDFVAAAGVIVDTADLKNDLGRIWNSYYPIYDVDVWWQADREEWQARVKGLTRDVNITTFFVVTFNGRDNYCEVVDIKDEGEIYLDNNGVYHLGPLSGVDGFAAFVQENPSRLTLESNTKILGAEVRWIK, MGSDKIHHHHHHGCDREEDERFPSGHHDPIEGDGEMVPINVKVDGVDEFPGGAVTRSGEILTKIVQPLDSTYDSGYDVETTIESLLPVNPVQTRGNMANMQFRVVAYKNNSITAANYAGTAVYSTNASGIASIVANTATPAAVSGQWVLRPGTYAFVFYSYGTNSAPAALSGNWSTTVTHNQDFMLCQKTGVDVKADASGQCLLSGISFSRQCAQLQLCVVAKEFNNNTVQQCAATISGLSNSPVTWNASQTTLPVTGTSGTLNVAWTNPNATTVNSNVYKVLPQTNRTLTIKFTTLKIGNGQMNNAITVSATSRIFSAAGNYKITVSIVPNYISVRSYKWARGNLYKSGSNFYFEASQSNYHGGATEGGFIGWNTLDIGVGKYNSGNYSTANDPCYQVVPPGTWETPSDGQLQDLINAGVTYSGSPKGFWFGGNNGVFLLALGSRDQSSTTINNTISKNGAWAFYWSRTPSGKTAKGLNAMQGNNSAGIDNSWARPDGRTIRCVKR, MGSDKIHHHHHHGIGVNSSNRLGIDNFEFIRVLGKGSFGKVMLARVKETGDLYAVKVLKKDVILQDDDVECTMTEKRILSLARNHPFLTQLFCCFQTPDRLFFVMEFVNGGDLMFHIQKSRRFDEARARFYAAEIISALMFLHDKGIIYRDLKLDNVLLDHEGHCKLADFGMCKEGICNGVTTATFCGTPDYIAPEILQEMLYGPAVDWWAMGVLLYEMLCGHAPFEAENEDDLFEAILNDEVVYPTWLHEDATGILKSFMTKNPTMRLGSLTQGGEHAILRHPFFKEIDWAQLNHRQIEPPFRPRIKSREDVSNFDPDFIKEEPVLTPIDEGHLPMINQDEFRNFSYVSPELQP, MGSDKIHHHHHHGIKNGLKEEPKINVGIKGGFNSSMYFTSRLELDGERMEDVQNNYKVGYFAAMFFRVHMKRHFIQPEIMYNIYKGEIAFNKNQNKENTLPELAKLNSTIHSLELPILYGYSFVKSRPYGMALFIGPKLEYVWKHKTSEEFEGFGYSGIKEELHPINISSVIGLGVNIANIFFDFRYEIGLTNISKSIIYKKDTDGIMSQEKGIFINRHRNVLSFSLGVIF, MGSDKIHHHHHHIANVETSSRNAIGFNVLSNAAETRATPTTNTNLKNTDFDVFAFTADGTAFMGKNDTEFEHDGVKIVYKNGKWDYDNASDLRYWPTEALDFYAFNPGTVSEDMMAFYSWEATKDVQKISYTCMDEYGSGTTHANYDVMYAMAKGQTKDMNNGIVKFNFKHILSQVVFKAKTQYDNMQVDIDVIKIHNFKFAGAFTLPAAADGTGSWSSSDLAFPHAFTVVKNANITVNSNTEATDITTNTPMLNIPQELTAWKVSETATKSKLEADNAKQCYLEIACKIRQSGAYLLGSASEYKTIYVPFGDTWEQGKRHIYTLIFGGGYDDQGEAVLNPIQFDAETTGWVDADKDVNVQP, MGSDKIHHHHHHIEAQIKEDLDLIRNGTSLLSLIPNFGMEAVTPWLDEFERGLMYELDFKREIKNIAFFRDMYRDRDDVKIPRPYSRLSTEDVIVMDYTPSVPIVRPFKAERLINMFLEQLLYEGVIHGDLHTGNIGLDSKTGSLVLYDFGNIINITSQYKTAIRDFVYGVQTGNVDAVMDNMVKMGMNVRDREVTRIFVKQYFDYLQTLDLTSFTINSPEIREKASKVPVELDSTTLTILRTYSLLEGLAKELDPSFSYARIINKNVELLFLDLEYIMYRIQKDTSS, MGSDKIHHHHHHIRMKINLGVVGAGIASRELHLPALRKLSDLFTVVAVNSRTRKKAEEFAGIVGGDVRVFDSYEEMLSSDSVDAVVLAVPISLNPKMIIAARRANKPVICEKPVAASVKEAVPLLRLPGSSPVYIAENYRHIEVYEKAAELLKEGRIGIPLAFSWLKWVDFGQDNKYVQTKWRQTPEHVGGFISDGGVHDVAALRKTLGDVEEVSGFTKKSLDYLGAENCVVFNMTLENGVIGNYSVVYGAASPLNRFEIVGTDGLMLVDKDGATIEIFAADREKIFVNKTDGFIEEFRDFYNVVEGEKNSLGTVGEALLDLATIEAGLVSAVEKRVVAVDSLLEES, MGSDKIHHHHHHKAPLDEIADDSFWSDETLVKYYVNDLYSEISVDGLQLQENRSDNSVSAQRDKYRASWFKFNYDMVSASDPQDDDVWEDYYVKVRKCNRFFERIGTSTIEESEKSRLTGEVHFLRAMFYFEMVKRYGGVILLDKVLTMEDNWEIPRSSEKECYDFILEDLKKATEMLPASYGSREKGRATKGAAYALKSRVELYDKRYEDVIKSCAEVYKLGYELVDGTTPEKYRSIWWTTNKDNKEIIFDVQYKSPDVYNNMMVCNMVTYINDKYGDRGWGGLGPTQELIDAFEMADGTPATQYSQAPADQVFDINTCGIYEGREPRFYANIVFHGSQIFFNADKGAVTVDRYLMDTPDKGDGSLTGYNVWKWIDYDNYNYPYAGAGSPDFSTNWIILRYAEIYLNDAEARLETGDVEGARKAVNMIRQRVGLPDLTESDPEKLRELIRKERRIEFAFEEQRFYDVRRWKIGPETQTTLHGVRFVSPTEFKVTKTDIRTWNDRLYLTPVPHDEIVRSSVLKQNLGY, MGSDKIHHHHHHKDEIKHLVSEWQGKEIRFPKDMVFARFATDTVDFTLPKSPHKVLVFVDSIGCTSCKLQLHRWKELIQYTDSITQGTVPFLFFFQSDDKKEIRYLLKKDNFDKPICMDQSDRLNELNHFPADGRFQTFLLDKDNKVVVIGNPIHNPNIRELYLKEITGKQPASQIQTTVKVEEASIQLGTIQMGESKEAVFRLTNTGNNPLVILDAATTCGCARPSFDKHPAKPGEILQVRVIMTPKDKGVFDETISVKCNTNQLIKLNIRGMAQ, MGSDKIHHHHHHLADVIYQAQPPLEFIPPAFNPLFLRFVHLLLPSWINWQTPITQIEADNVEVLVDLYRQFQEGKIRFMLAFRHPKTDDPFCLAYLLSQLVPKIARSQGTTLQLPIHAHFIYDRGIPLWAGSYVGWIASRLGGTPIQRGKADWTGLRSARDLFANGKFPMAAAPEGATNGLSENISPLEPGIAQLGFWCAEDLHKAERPEQVLIVPVGIKYSYVDAPWDAIANLLSELEAASGLPVNSAENASIESLYPRLLALAEHLLLLMEEFYTRFYHQKLPDSKIVNGQIPDRNEALAVRLQALLNAALLISEQYFNLQSKGSLSDRCRRVEQAGWNYIFREEFKDVKGVSAVERALGDRVAEEANARMWHMRLVESFVAVSGNYIRENPTVERFAETTLILWQMIAKIKGDKGVQRPQLGKQKVKITVGEPISISEHYPAYKENRLGARQAVADVTNDLQHALEGLI, MGSDKIHHHHHHLAVMPFSPDQIIRPEILALSAYHVPPACGMIKLDAMENPYPLPPELRDEIAKLAGETPVNRYPDPDAAALKAALREALSIPDGMDIMLGNGSDEIIQIIALACGKPGAVLMSVEPAFVMFRMIATFASMNYVGVPLHPDFSLDAEAMLAAIARYQPAVIFIAYPNNPTGNLFDAVEISRIIDAAPGVVVVDEAYHAFADASFMDKLAHHPNLLLMRTLSKLGMAGLRLGLLAGKPEWLRQLEKLRLPYNVGIVTQRIAEKLLQHRDVLLQQAAAIKLERSSMSRRLAELEGIEVFPTDANFILFRLNQDHKATQVFQELKQRGILVKNLDGAHPLLKNCLRVTVGMPDENAQFLEVLQTLLVKVEAKA, MGSDKIHHHHHHLDPFASPQNLDKELRSLLAQASSNLCDWFAESASQGPMPYSFELPEVYPAKEGVSNDVLLSELQLLMDGSYRPSHPGSLAHLDPPPLSASIAGELICAGLNNNLLADELSPSLSSLERNLCKWFCHKLGLGDLSGGVAASGGSLSNLMALVMARNNSGLETDPKAVFFASHDCHVSFSKAFRIMGLKQESLQKVSTDENGALNISSLRTSLNKIKSQGKKCFAVVATAGTTVRGAIDPLSEIAKFCKKENVWFHVDGSIGGIYGLSEMTSEIVQGLGFADSLTINPQKLLGIPKTSSLLLVANKNHLSSTFSTGLPYVEPISGNDFHGGELGIQGTRSAETLKLWIGLRQLGEEGIEKILLGSIKRRCYLESIIDRSKFKIISGPLHLLAFTPINYSSSQSSDWSLKTRNSLLANKFMLSRPMYGHRYYLKAVMGNPNTKFDDLKMLANLINHSIS, MGSDKIHHHHHHLEAGMNYGVWNNKGGVGKSFLSFTLALEHAHRHPERKILLADMCPQANLSEIILGGNGKGNANLEARLAQDKRKTIGGYFDERIASPHQVTGNETSYLIAASDYNQELPDNVYLLCGDPSLELQAQVINQIGSQTLPADAWKNVHMWLKDLINACARQLGREGTSVFIDCNPSFSAYTELAIVASDRLILPCSCDGSSARAVHNVENLVFDGSAYYGDKSFSKMCERFGMALPVIHSVVLNRSTLYNKDASKAFSAMFDEIKRTANDFYKRSPGSFVAGGPAFMVMPDNHSVAIVSSHLGKPLYAIKPGKYQVYEVNPQINPEPLNRYKEAIEGMEAVLL, MGSDKIHHHHHHLGFGAPKISNEEERLRALAEYRILGTQPEQCYDDITKIASLTCGTPISLMSLVDTDTQWFKSMCGFETKETSRDVSFCAHAIASSEPLIVEDALLDERFKSNPLVVEEPKIRLYAGFPLQTPNDQRIGTLCVIDRKPGHLSDHQHQIMEALSRQVVTLLELRKRSIRLLDALTHMHNTEGILTTCSYCKEVRDSDGEWQHLEKYLSKIADIRFSHGICDLCMEKHFPDVLEVWSDDKLDLNSKKNKPECKKSN, MGSDKIHHHHHHLKQLLLDIQPPAAPSLDNFVTGRNAEALFQLRRTVLEHDDARFIYLWGETGCGKTHLIQACNALASASGLDMICVDDVHLLSNDDQVALFDLYNQLRESGGRLIVSGLAAPSQMGLRDDLATRLAWGLSYQLHPLSDEEKTQALKNHAEARGMKLPDEVLDYCLRHLRRDMPSLIATIDALDEWSLISKRAVTLPLLKQLLQTST, MGSDKIHHHHHHLSIIEQYLSQAEALFQSKNYSSARMYARKVIKRDDKHLGALSLLGQIHLQQQQYNEAENYFATAAAVDPNAMPVLTGLLAIAEVKQDFFLAKTYLLQLINTQGNVETYQYKLGLVATKVGDMALAEQCFEWCVANDFSEPAVQLNLGHIYKAKGDTEKAANFYHQYNQLSPKQVGVGYWSLADLKQYRFSTDDLTLLQVFATDESLSKQNQALVYFALCKAYEQTQQIDKASESMLLANKIMTLHRPFKQAQFANIVLSLLGHTPSPHIDSLPTASQTPIFIVGMPRSGTTLVEQILACHTDVGATDELPFMERFALQMDMSGGYNARLSQLSASHIDQFRQRYLAEVNHYFSDAPTYVIDKNPNNFLHIGLIKTLFPQAKIINVVRNTVDNGLSVFKQFFSFGHDYSYSFAGISSYWQHYLDIMQHWDRLYPNEILHVCFEQLVREPESQIQRILDYCELTTQAQCFTFYESERAVLTPSASQVRQPMNLKAIGQADKYQAFIPEQIAELDAIAKKAALQFFG
